PMC2592702

Molecular target: recombinant mouse PrP, amino acids 23–231 (rmPrP_(23-231)) (mouse)
Assay: ELISA

Q: With POM2 monoclonal antibody (IgG) as the substance, how does the stoichiometry N read?
A: The stoichiometry N was greater than 2.
